Test [1] concerns the target T1, human CD103 (integrin Alpha-E) / human integrin Beta-7 heterodimer on cells (human, UniProt P38570 19-1179; P26010 20-798).
T1 construct: the assay field tells which cells; also called hCD103/hBeta7; CHO.K1-hCD103/hBeta7
Put plainly: flow cytometry competition on CD103+CD8+ T cells; pre-incubation with unlabeled IgG (f2); table n=1. The protocol: (§1) Percentage binding of fluorescently labeled mAbs was determined using flow cytometry. Maximum binding was set at 100%

For test [2], the target named is T2, human integrin Alpha-4 / human integrin Beta-7 heterodimer on CHO-K1 cells (human, UniProt P13612 34-1032; P26010 20-798).
T2 construct: Used as the control for reactivity with hBeta7; also called hAlpha4/hBeta7; CHO.K1-hAlpha4/hBeta7
Put plainly: cell ELISA on CHO.K1-humanAlpha4/beta7 cells, abs 450-610. (In an ELISA, binding on a coated surface is turned into a signal by an enzyme label.)

Test [3] has as its target T1, human CD103 (integrin Alpha-E) / human …. Description: flow cytometry competition on CD103+CD8+ T cells; pre-incubation with unlabeled MCA708 (f4); table n=2. The protocol: Percentage binding of fluorescently labeled mAbs was determined using flow cytometry. Maximum binding was set at 100%.
as §1
On the technique in general: Flow cytometry measures light scatter and fluorescence of single cells or particles in a stream.

Test [4] deals with T3, CHO.K1-rhesusCD103/beta7.
T3 construct: also called CHO.K1-rhCD103/rhBeta7; CHO-K1.rhCD103/rhBeta7
T3 alpha chain (rhesus integrin Alpha-E, CD103): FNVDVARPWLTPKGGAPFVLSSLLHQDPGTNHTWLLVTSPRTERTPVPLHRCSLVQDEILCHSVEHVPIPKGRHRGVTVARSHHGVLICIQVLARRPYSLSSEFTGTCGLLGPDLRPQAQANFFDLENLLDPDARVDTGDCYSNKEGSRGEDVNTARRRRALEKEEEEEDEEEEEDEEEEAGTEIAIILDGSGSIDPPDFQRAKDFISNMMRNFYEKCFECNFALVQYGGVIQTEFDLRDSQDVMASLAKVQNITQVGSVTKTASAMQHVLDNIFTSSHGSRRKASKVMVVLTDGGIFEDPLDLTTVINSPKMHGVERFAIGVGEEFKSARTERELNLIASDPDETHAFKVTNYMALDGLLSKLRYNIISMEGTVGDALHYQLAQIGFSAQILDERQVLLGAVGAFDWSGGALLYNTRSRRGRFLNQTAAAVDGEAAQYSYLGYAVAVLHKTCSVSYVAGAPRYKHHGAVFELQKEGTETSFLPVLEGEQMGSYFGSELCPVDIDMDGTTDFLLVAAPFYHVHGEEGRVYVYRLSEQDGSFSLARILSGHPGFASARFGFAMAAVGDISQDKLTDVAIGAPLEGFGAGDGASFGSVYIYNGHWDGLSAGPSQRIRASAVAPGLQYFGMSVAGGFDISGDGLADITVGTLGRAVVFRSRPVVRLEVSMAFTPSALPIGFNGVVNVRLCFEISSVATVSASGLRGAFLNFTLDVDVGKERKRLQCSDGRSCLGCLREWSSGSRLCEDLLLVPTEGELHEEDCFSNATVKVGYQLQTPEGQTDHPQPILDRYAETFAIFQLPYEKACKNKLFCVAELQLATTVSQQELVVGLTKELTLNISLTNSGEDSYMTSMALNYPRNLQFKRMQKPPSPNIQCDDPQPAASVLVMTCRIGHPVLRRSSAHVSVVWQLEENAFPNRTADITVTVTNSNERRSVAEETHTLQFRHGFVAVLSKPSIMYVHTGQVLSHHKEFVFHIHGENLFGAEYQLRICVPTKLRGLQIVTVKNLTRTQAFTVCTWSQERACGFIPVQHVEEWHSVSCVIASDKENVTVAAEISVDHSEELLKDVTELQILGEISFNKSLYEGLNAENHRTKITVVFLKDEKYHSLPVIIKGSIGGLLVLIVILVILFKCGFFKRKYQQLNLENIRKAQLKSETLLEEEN
T3 beta chain (rhesus integrin Beta-7): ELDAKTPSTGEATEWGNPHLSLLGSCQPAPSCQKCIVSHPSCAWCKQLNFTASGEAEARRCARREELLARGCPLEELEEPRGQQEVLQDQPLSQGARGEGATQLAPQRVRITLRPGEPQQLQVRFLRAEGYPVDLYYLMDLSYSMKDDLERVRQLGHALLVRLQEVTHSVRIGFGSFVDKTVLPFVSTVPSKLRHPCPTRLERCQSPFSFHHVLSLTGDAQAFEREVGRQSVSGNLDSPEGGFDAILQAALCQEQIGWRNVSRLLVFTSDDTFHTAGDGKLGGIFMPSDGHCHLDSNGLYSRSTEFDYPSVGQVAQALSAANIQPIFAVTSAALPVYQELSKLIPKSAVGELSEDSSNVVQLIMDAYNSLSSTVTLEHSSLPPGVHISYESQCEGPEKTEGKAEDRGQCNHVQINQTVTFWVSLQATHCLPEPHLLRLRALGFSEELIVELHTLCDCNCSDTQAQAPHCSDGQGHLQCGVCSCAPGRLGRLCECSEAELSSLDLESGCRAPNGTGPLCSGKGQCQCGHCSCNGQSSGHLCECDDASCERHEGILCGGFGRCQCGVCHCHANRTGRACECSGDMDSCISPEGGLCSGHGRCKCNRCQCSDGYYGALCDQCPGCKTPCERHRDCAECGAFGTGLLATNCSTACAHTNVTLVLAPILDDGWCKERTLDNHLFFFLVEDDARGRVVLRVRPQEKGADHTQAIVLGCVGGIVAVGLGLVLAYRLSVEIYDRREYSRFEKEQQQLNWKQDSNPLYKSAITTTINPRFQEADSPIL
Description: cell ELISA on CHO.K1-rhesusCD103/beta7 cells, abs 450-610.

The record followed here is US20230183354A1 (IMMIOS HOLDING B V, published 2023).

Changes are numbered by the printed parent chain.

The EC50 (read off the curve) is the midpoint of the concentration-response curve. Lower therefore signals an effect from little substance.

T2 sequence (P13612 34-1032 limits assumed, chain 1 of 2): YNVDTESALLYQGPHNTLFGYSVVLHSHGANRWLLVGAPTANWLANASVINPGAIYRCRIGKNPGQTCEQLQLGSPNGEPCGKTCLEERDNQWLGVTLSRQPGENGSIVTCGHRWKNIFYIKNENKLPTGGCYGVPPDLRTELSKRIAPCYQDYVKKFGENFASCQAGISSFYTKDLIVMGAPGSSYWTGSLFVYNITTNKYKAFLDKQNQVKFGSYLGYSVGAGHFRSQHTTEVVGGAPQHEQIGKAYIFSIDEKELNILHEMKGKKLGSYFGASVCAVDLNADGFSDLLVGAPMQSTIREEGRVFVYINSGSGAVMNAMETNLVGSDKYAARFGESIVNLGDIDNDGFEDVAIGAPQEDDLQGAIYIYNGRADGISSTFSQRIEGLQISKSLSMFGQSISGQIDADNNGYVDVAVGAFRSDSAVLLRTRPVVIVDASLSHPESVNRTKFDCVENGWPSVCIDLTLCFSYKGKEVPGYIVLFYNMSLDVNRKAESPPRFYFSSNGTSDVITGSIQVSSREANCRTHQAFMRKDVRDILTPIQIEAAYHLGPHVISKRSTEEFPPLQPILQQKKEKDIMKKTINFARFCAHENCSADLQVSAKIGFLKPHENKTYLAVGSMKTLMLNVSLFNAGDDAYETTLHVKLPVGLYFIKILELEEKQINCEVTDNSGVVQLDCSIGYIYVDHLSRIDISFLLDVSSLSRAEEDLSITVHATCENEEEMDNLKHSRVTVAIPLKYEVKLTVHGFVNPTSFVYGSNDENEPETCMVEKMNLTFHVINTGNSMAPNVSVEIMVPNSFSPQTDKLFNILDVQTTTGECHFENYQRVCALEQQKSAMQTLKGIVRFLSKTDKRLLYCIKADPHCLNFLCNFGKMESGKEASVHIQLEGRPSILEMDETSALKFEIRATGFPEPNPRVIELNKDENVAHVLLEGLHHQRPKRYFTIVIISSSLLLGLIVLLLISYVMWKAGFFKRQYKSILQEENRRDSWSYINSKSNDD
T2 sequence (P26010 20-798 limits assumed, chain 2 of 2): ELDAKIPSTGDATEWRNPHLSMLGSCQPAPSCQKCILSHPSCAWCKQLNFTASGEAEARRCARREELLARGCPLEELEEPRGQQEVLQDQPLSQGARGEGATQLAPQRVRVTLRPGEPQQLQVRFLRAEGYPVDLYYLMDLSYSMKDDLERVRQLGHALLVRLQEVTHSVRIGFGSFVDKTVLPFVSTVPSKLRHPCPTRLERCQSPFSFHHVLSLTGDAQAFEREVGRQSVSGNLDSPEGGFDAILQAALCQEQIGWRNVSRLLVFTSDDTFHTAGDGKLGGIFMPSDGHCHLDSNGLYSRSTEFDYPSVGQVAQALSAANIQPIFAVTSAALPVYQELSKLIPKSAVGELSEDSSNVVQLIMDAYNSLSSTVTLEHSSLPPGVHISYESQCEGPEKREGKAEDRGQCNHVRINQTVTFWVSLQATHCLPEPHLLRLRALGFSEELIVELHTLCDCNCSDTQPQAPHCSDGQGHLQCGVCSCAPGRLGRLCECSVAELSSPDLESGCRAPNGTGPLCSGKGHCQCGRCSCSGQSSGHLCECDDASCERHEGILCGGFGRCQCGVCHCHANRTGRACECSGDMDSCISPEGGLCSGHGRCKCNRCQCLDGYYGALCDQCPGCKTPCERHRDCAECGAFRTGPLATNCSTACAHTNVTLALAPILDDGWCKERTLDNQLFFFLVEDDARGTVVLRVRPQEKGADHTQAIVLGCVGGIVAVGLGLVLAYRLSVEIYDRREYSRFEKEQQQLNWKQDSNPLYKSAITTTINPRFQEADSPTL
T1 sequence (P38570 19-1179 limits assumed, chain 1 of 2): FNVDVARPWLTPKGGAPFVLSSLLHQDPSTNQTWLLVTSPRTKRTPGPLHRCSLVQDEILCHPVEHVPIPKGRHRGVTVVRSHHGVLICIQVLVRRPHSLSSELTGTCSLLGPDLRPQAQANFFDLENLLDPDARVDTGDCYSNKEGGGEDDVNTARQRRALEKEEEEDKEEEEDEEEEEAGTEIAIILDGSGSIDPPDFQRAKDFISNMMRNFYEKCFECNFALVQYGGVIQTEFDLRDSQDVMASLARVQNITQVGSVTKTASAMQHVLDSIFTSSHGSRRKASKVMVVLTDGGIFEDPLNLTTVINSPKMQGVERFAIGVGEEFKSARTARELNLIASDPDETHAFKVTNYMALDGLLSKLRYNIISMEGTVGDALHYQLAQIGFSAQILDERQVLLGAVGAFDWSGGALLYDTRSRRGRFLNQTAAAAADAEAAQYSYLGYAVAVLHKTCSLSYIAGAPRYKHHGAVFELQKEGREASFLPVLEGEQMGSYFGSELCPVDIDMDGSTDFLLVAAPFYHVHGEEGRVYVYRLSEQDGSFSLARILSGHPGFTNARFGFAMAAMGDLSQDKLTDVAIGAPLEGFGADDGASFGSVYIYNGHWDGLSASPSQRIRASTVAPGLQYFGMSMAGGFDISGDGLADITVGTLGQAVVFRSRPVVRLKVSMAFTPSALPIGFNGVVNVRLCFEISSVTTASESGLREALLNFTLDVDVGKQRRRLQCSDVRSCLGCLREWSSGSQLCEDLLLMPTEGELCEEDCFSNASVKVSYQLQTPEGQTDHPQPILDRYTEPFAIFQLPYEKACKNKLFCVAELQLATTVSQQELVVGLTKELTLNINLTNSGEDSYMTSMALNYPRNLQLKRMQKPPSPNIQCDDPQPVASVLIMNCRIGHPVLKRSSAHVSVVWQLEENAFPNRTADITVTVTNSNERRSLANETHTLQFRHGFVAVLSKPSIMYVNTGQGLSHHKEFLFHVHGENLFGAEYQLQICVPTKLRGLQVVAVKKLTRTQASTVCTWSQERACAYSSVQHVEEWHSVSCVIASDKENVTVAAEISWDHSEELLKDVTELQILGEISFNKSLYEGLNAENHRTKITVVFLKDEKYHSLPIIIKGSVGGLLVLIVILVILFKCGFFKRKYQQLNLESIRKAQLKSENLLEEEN
T1 sequence (P26010 20-798 limits assumed, chain 2 of 2): as the sequence (P26010 20-798 limits assumed, chain 2 of 2) above

B1: hCD103.05A (antibody, mouse IgG1, V domains shown)
VH: EVQLQQSGPELEKPGASAKISCKASGYSFTGYNMNWVKQSNGKSLEWIGNIDPYYGGTSYNQKFKGKATLTVDKSSSTAYMQLKSLTSEDSAVYYCARSFYGYDAGSPYNYAMDYWGQGTPVTVSP
VL: DIVMTQSHKFMSTSVGDRVSITCKASQDVGTFVAWYQQKPGQSPKLLIYWASTRHTGVPDRFTGSGSGTDFTLTISNVQSEDLADYFCHQYSSYPYTFGGGTQLEIK
notes: Also tested labelled with AF647, conjugated with Df and labelled with 89Zr; these are written under this molecule; also called clone 05A; hCD103.05 mAb
Consider B1, for which the “% binding of the fluorescently labeled mAb (IgG pre-incubation = 100)” value (shortened to “% binding”) in test [1] was determined as 100%; in test [3], 89.7%. In test [2], the binding result was “no binding”.

B2: hCD103.06A (antibody, mouse IgG1, V domains shown)
VH: QVQLQQPGSELVRPGASVKLSCKASGYTFTSYWMHWVKQRHGQGLEWIGNIYPGSGSTNYDEKFKSKGTLTVDTSSSTAYMHLSSLTSEDSAVYYCTRGVYDNPYYFDYWGQGTTLTVSS
VL: DIQMTQSSSNLSVSLGGRVTITCKASDHINNWLAWYQQKPGNAPRVLISGATSLETGVPSRFSGSGSGKDYTLSITSLQTEDVATYYCQQYWSIPLTFGAGTKLELK
notes: also called clone 06A; hCD103.06 mAb
With B2, the “% binding” value in test [1] stood at 100%; in test [3], 1%. The binding result in test [2] is “no binding”. Also, in test [4], the “EC50 (read off the curve)” value is about 0.05 µg/mL.

B3: hCD103.07A (antibody, mouse IgG1, V domains shown)
VH: EVQLQESGPSLVKPSQTLSLTCSVTGDSITSGYWNWIRKFPGNKLEYMGYITYSGSTYYNPSLKSRISITRDTSKNQYYLQLNSVTTEDTATYYCARNYYGSSSMDYWGQGTSVTVSS
VL: DIVMTQSQKFMSTSVADRVSVTCKASQNVGSDVAWYQQKPGQSPKSLIYSASYRYSGVPDRFTGSGSGTDFTLTISNVQSEDLAEYFCQQYNSYPSTFGGGTKLEIK
notes: also called clone 07A
In the case of B3, the “% binding” value in test [1] was 100%; in test [3], 92.5%. Also, in test [2], the binding result was “no binding”. For the same molecule, the half-maximal effective concentration (EC50 (read off the curve)) in test [4] was about 0.02 µg/mL.

B4: hCD103.01A (antibody, V domains shown)
VH: B3 VH with A96T, N98H, S103D, S104A
VL: DIVMTQSHKFMSTSVGDRVSITCKASQDVSIAVAWYQQRPGQSPKLLIYSASYRYTGVPDRFTGSGSGTDFTFTISSVQAEDLAVYYCQQHYSTPWTFGGGTKLEIK
notes: Also tested labelled with AF647, conjugated with Df and labelled with 89Zr; these are written under this molecule; also called clone 01A; hCD103.01 mAb
For B4, the “% binding” value turned out to be 100% in test [1] and 92.3% in test [3]. In test [2], the binding result was “no binding”. In addition, the “EC50 (read off the curve)” value in test [4] is about 0.05 µg/mL.
